Data reported in patent publication US20040170622A1, “Methods and compositions for modulating XBP-1 activity” (President and Fellows of Harvard College, priority 2002, published 2004).

T1: IL-6R (Homo sapiens, UniProt P08887)
T1 sequence (P08887 20-468): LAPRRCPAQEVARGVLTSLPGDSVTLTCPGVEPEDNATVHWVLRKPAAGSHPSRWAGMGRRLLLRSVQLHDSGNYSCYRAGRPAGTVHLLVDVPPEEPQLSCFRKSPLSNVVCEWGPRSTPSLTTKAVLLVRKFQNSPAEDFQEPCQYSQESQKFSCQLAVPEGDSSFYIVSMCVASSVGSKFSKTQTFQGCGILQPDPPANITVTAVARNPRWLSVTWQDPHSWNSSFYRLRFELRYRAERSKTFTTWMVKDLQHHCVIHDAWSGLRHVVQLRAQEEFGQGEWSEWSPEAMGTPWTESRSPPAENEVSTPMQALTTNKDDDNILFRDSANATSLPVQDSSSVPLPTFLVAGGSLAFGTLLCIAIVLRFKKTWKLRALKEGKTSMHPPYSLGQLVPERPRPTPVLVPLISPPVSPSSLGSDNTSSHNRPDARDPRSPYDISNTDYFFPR

T2: IL-6/IL-6 R complex with gp130 (Homo sapiens, UniProt P08887)
T2 sequence (P08887 20-468): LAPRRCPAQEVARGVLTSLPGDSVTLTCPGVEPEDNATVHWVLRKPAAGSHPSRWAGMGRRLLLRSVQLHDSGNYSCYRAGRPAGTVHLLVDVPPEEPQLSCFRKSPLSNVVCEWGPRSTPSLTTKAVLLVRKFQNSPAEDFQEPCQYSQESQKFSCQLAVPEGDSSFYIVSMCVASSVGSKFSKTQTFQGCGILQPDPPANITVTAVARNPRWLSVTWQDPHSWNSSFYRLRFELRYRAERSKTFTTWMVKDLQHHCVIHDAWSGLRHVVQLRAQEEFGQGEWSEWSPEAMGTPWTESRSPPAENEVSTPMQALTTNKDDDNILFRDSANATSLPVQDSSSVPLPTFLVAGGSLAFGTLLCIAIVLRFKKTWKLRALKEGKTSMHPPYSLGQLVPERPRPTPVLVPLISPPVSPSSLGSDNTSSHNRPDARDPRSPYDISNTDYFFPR
T2 sequence (P40189 23-918 partner): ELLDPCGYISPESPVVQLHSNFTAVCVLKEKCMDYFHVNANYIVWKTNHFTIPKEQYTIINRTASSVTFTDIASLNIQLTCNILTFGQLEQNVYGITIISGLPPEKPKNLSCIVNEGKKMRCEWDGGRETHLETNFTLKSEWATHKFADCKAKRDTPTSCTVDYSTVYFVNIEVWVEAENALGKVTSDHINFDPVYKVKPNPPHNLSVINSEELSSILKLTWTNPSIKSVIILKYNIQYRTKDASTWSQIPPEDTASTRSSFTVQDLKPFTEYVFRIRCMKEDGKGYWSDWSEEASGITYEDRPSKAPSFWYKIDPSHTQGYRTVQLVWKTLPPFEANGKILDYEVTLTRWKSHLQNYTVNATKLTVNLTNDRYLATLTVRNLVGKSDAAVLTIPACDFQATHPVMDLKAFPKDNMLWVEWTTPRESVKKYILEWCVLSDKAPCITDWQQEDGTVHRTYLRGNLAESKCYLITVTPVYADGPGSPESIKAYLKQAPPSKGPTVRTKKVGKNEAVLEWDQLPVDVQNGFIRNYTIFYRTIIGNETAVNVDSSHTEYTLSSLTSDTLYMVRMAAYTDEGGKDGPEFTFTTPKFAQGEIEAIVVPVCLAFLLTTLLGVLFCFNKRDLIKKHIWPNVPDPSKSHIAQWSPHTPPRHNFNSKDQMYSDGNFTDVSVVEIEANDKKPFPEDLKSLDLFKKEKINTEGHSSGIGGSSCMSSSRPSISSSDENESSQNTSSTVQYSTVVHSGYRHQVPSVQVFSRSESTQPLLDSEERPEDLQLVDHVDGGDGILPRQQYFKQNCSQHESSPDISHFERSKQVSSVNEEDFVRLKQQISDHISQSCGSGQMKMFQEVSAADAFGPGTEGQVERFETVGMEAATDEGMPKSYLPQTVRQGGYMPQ

B1: XBP-1u: murine XBP-1 with point mutations at loop positions −1 and +3; yields only unspliced 33 K protein (protein)
chain: MVVVAAAPSAATAAPKVLLLSGQPASGGRALPLMVPGPRAAGSEASGTPQARKRQRLTHLSPEEKALRRKLKNRVAAQTARDRKKARMSELEQQVVDLEEENHKLQLENQLLREKTHGLVVENQELRTRLGMDTLDPDEVPEVEAKGSGVRLVAGSAESAALRLCAPLQQVQAQLSPPQNIFPWTLTLLPLQILSLISFWAFWTSWTLSCFSNVLPQSLLVWRNSQRSTQKDLVPYQPPFLCQWGPHQPSWKPLMNSFVLTMYTPSL

Key:
IL-6R = biological target: T1, IL-6R; settings: IL-6R alone; read-out: Kd (low affinity); cited from earlier work
[1] = biological target: T2, IL-6/IL-6 R complex with gp130; settings: IL-6/IL-6R complex on the membrane with gp130; read-out: Kd (high affinity); cited from earlier work
XBP-1^−/− B cells = assay: Ig production by retrovirally transduced XBP-1-/- primary B cells (ELISA); assay type: cell-based, mouse; settings: LPS 10 μg/ml 72 h
Description: (§1) Assays to measure immunoglobulin or cytokine levels in culture supernatants were performed as described (e.g., Hodge et al., 1996 Immunity. 4:397-405 or Science. 1996 274:1903-5).
(§2) The XBP-1 cDNAs for the unspliced (XBP-1u/s) and the spliced (XBP-1s) forms were PCR-amplified from the total RNA of untreated and tunicamycin treated NIH3T3 cells, respectively, with a primer set (5′-[…]-3′ (SEQ ID NO: 7) and 5′-[…]-3′) (SEQ ID NO: 8). XBP-1u form was generated by a PCR-based mutagenesis from XBP-unspliced/s cDNA so that the two G residues at position 532 and 535 were changed to A without changing amino acid sequences in the XBP-1u open reading frame. Numbers are based on the sequences from gene bank database (NM_013842 [gi:13775155]). These XBP-1 cDNAs were inserted into the GFP-RV retroviral vector by using blunt end ligation (Sambrook et al., 1989). EFFECTENE transfection (Quiagen) was used to introduce the DNA into the Phoenix cell line as described by manufacturer (e.g., Reimold et al., 2001 Nature. 412:300-7 or Int Immunol. 2001 13:241-8). Viral supernatants were harvested after 48 hours and frozen at −80° C. for later use. B cells were purified from mouse spleens using CD43 depletion or positive selection with B220+ magnetic beads as described by the manufacturer (MidiMacs, Miltenyi Biotech). B cell purity was generally near 95% as confirmed by flow cytometry. The B cells (10^6 cells /ml) were then activated in culture with LPS 10 μg/ml and F (ab′)2 anti-IgM (5 μg/ml Southern Biotechnology Associates Inc.) for 24 hours. The 1 ml of activated B cells (10^6 cells/ml) were mixed with 4 μg of polybrene and 1 ml of virus-containing supernatant and spun at 1000 g for 45 minutes at 24° C. Cells were incubated for 24-36 h at 37° C. and then GFP+ cells were flow sorted and returned to culture with and without stimulation.
The effects of these three different forms of XBP-1 on Ig secretion were compared in wild type and XBP-1^−/− B cells. In vitro activated splenic B cells were transduced using retroviruses expressing bicistronic mRNA encoding XBP-1u/s, XBP-1s, XBP-1u or control GFP. In FIGS. 5(A) and (B) purified B cells from wt and XBP-1^−/− mice were activated in culture with LPS 10 μg/ml and F (ab′)2 anti-IgM (5 μg/ml) for 24 hours. Retroviral transduction with GFP alone (GFP-Rv), XBP-1u/s (XBP-1u/s GFP Rv), XBP-1s (XBP-1s GFP Rv) or XBP-1u (XBP-1u GFP Rv) of activated B cells was performed. Cells were incubated for 24-36 h at 37° C. and then GFP+ cells were flow sorted and then returned to culture with LPS stimulation (10 μg/ml) for 72 h. IgM panel(A) and IgG2b panel (B) production analyzed by ELISA from culture supernatants of stimulated B cells. Experiments were done at least three times and standard deviation is shown.

IL-6 = IL-6 production by retrovirally transduced wt and XBP-1-/- B cells (ELISA, Northern blot); assay type: cell-based, murine; settings: wild type and XBP-1-/- cells
Description: as §1, §2
In human multiple myeloma cells, XBP-1 was induced by IL-6 treatment and implicated in the proliferation of malignant plasma cells (Wen et al., 1999). However, no role for IL-6 in upregulating XBP-1 transcripts or in mediating splicing of XBP-1 RNA in mature B cells has been described (FIG. 6A). The ability of XBP-1 to induce IL-6 production in wt and XBP-1^−/− primary B cells was tested. As described above, in vitro activated murine splenic B cells were transduced using retroviruses expressing bicistronic mRNA for XBP-1u/s, XBP-1s, XBP-1u and control GFP. After cell sorting, GFP^+ cells were stimulated with LPS and assayed for cytokine production after 72 h. In FIG. 6 panel (A) purified B cells from wt and XBP-1^−/− mice were activated in culture with LPS 10 μg/ml and F(ab′)2 anti-IgM (5 μg/ml ) for 24 hours. Retroviral transduction with GFP alone (GFP-Rv), XBP-1u/s (XBP-1 u/s GFP Rv), XBP-1s (XBP-1s GFP Rv) or XBP-1u (XBP-1u GFP Rv) of activated B cells was performed. Cells were incubated for 24-36 h at 37° C. and then GFP+ cells were flow sorted and then returned to culture with LPS stimulation (10 μg/ml) for 72 h. Cytokine production was analyzed by ELISA from culture supernatants of stimulated B cells. Experiments were done at least three times and standard deviation is shown. In panel (B) Total RNAs were prepared from stimulated B cells above and XBP-1 mRNA levels were determined by Northern blot analysis with γ-actin control

XBP-1 = assay: XBP-luciferase reporter in NIH3T3 cells; assay type: cell-based; settings: in the presence of 5 uM MG-132; with unspliced XBP-1 (41.9 without)
Description: The fold induction of luciferase was measured in NIH3T3 cells bearing XBP-luciferase. The constructs included four copies of the XBP-1 target sequence TGGATGACGTGTACA (SEQ ID NO: 9) fused to the minimal promoter of the mouse RANTES gene (Clauss et al. Nucleic Acids Research 1996. 24:1855) or five copies of the ATF6/XBP-1 target […] (SEQ ID NO: 10) and comprising −53/+45 of the cfos promoter (J. Biol. Chem. 275:27013). In the presence of 5 uM MG-132, the presence of unspliced XBP-1 inhibits the fold induction of luciferase from 41.9 to 5.8. Thus, in the presence of proteasome inhibitors, the unspliced protein blocks the function of the spliced protein.

XBP-1s = assay: UPRE-luciferase reporter in NIH3T3 cells; assay type: cell-based
Description: (A) Ubiquitination of XBP-1 in HeLa cells were cotransfected with XBP-1u and His-tagged ubiquitin expression plasmids. (B) Degradation rates of XBP-1u and XBP-1s proteins were determined by pulse labeling J558 cells with ^35S Met/Cys for 1 hr and chasing for the indicated times. (C) Effect of XBP-1u on XBP-1s dependent UPRE activation in PI-treated NIH3T3 cells with 8-fold excess of XBP-1u plasmids. Transfected cells were treated with MG-132 for 16 hrs before harvesting for luciferase assays. Values represent fold induction of activity compared to the reporter alone after normalizing to Renilla. (D) Generation and expression of lysine to arginine XBP-1u mutants. Two or three lysine residues in the C-terminus of XBP-1u were replaced by arginine to generate XBP-1uKK (235, 252) and XBP-1uKKK(146, 235, 252) by site-directed mutagenesis. dn-XBP contains the N-terminal 188 aa of XBP-1u. Western blot analysis was performed with NIH3T3 extracts transfected with the indicated plasmids. E) Inhibition of XBP-1 dependent activation of the UPRE reporter in NIH 3T3 cells by XBP-1u lysine to arginine mutants.
Two or three lysine residues in the C-terminus of XBP-1u were replaced by arginines to generate XBP-1uKK (K235R, K252R) and XBP-1uKKK(K146R, K235R, K252R) by site-directed mutagenesis (Iwakoshi et al.2003 Nature Immunology 4: 321-329). dn-XBP contains the N-terminal 188 aa of XBP-1u. NTH3T3 cells were transfected by using the Lipofectamine2000 reagent as recommended by the manufacturer (Invitrogen, Carlsbad, Calif.) with indicated amount of UPRE (UPR element) reporter (Wang et al. 2000 J Biol Chem 275: 27013-27020) and various effector plasmids. Cells were treated for 16 hours before harvest in certain experiments. Cells were lysed in passive lysis buffer for dual luciferase assays according to the manufacturer's protocol (Promega, Madison, Wis.).

| Molecule | Kd (IL-6R) | Kd [1] | secretion of IgG2b compared to control cells (XBP-1^−/− B cells) | secretion of IgM compared to control cells (XBP-1^−/− B cells) | IL-6 amounts expressed (IL-6) | fold induction of luciferase (XBP-1) | UPRE reporter activity (XBP-1s; in the absence of treatment) | effect on transactivation of UPRE reporter by XBP-1s (XBP-1s; in the presence of MG-132, 16 hrs, 8-fold excess of XBP-1u plasmid) |
| --- | --- | --- | --- | --- | --- | --- | --- | --- |
| IL-6: multi-functional cytokine; mature human IL-6 is a 185 amino acid polypeptide | ~1 nM | ~0.01 nM |  |  |  |  |  |  |
| B1 |  |  | unable to increase IgG secretion | unable to increase IgM secretion | moderate amounts of IL-6 | 5.8 | but not XBP-1u, greatly increased reporter activity | significantly suppressed transactivation of the reporter by XBP-1s |
